Patent publication US20260125472A1 (HEFEI TG IMMUNOPHARMA, published 2026)

Columns and labels:
[1] = biological target: T1, PDL1 on A-375 melanoma cells, HCT-15 colorectal cancer cells and A549 lung cancer cells (UniProt Q9NZQ7 19-290, limits assumed); experiment: flow cytometry, A549 cells, MFI [panel B]
T1 construct: whole, on cells
Method: (2) The tumor cells were diluted to 2×10⁶/ml with PBS and added to a 1.5 ml EP tube at a volume of 100 μl/tube, and goat serum was added thereto at 10 μl/tube. The cells were blocked at 4° C. for 30 min. The serially diluted bispecific antibodies, Cross3×Trop2, Cross303×Trop2, Cross307×Trop2, Cross308×Trop2, Cross309×Trop2, Cross310×Trop2, Cross311×Trop2, Cross312×Trop2, Cross313×Trop2, Cross314×Trop2, Cross316×Trop2, Cross317×Trop2, Cross318×Trop2, Cross323×Trop2, Cross325×Trop2, Cross326×Trop2, and Cross3×PDL1, Cross303×PDL1, Cross307×PDL1, Cross308×PDL1, Cross309×PDL1, Cross310×PDL1, Cross311×PDL1, Cross312×PDL1, Cross313×PDL1, Cross314×PDL1, Cross316×PDL1, Cross317×PDL1, Cross318×PDL1, Cross323×PDL1, Cross325×PDL1, Cross326×PDL1, and control hIgG1LALA (purchased from Bio-Tech) were added and incubated at 4° C. for 30 min. 1 ml of PBS was added to the EP tube, followed by centrifugation at 3500 rpm for 5 min at 4° C. The supernatant was discarded, and the cells were washed again with PBS. After centrifugation, the supernatant was completely discarded, and the cells were resuspended with PBS at 100 μl/tube. Alexa-647-labeled goat anti-human IgG secondary antibody (purchased from Jackson lab) was added at 1 μl/tube and incubated at 4° C. in the dark for 30 min. The cells were washed twice with PBS, and the supernatant was completely discarded after centrifugation. The cells were resuspended with PBS at 200 μl/tube and assay was performed using the flow cytometry.

PDL1 protein = biological target: T2, PDL1 protein (UniProt Q9NZQ7 19-238); experiment: ELISA, coated PDL1 protein, OD450 [panel A]
T2 construct: Bought recombinant protein
Method: (3) PDL1 protein (purchased from Acro) was diluted to 2 μg/ml with PBS buffer, added to a 96-well plate at a volume of 100 μL/well, and placed at 4° C. overnight. The PBS buffer in the 96-well plate was aspirated, and the plate was washed 6 times with PBST (pH 7.2 PBS containing 0.10% Tween 20) buffer. Then, PBS/10% BSA was added at 200 μL/well and incubated at 37° C. for 2 h for blocking. The blocking solution was removed, and the plate was washed six times with PBST. Then, the to-be-tested bispecific antibodies serially diluted with PBST/0.05% BSA, Cross3×PDL1, Cross303×PDL1, Cross307×PDL1, Cross308×PDL1, Cross309×PDL1, Cross310×PDL1, Cross311×PDL1, Cross312×PDL1, Cross313×PDL1, Cross314×PDL1, Cross316×PDL1, Cross317×PDL1, Cross318×PDL1, Cross323×PDL1, Cross325×PDL1, Cross326×PDL1, and control IgG1LALA (purchased from Bio-Tech) were added at 100 μL/well, and incubated at 37° C. for 1 h. The reaction system was removed, and the plate was washed 6 times with PBST. Then, the cells were incubated at 37° C. for 1 h with HRP (horseradish peroxidase)-labeled anti-human secondary antibody (Fab specific) (purchased from Sigma) serially diluted with PBST/0.05% BSA at 100 μL/well. After the plate was washed six times with PBST, TMB (tetramethylbenzidine) was added at 80 μL/well and incubated at room temperature for 3 min. 4 M sulfuric acid was added at 80 μL/well to terminate the reaction. The absorbance was read at 450 nm using a microplate reader.

T1 sequence (Q9NZQ7 19-290 limits assumed): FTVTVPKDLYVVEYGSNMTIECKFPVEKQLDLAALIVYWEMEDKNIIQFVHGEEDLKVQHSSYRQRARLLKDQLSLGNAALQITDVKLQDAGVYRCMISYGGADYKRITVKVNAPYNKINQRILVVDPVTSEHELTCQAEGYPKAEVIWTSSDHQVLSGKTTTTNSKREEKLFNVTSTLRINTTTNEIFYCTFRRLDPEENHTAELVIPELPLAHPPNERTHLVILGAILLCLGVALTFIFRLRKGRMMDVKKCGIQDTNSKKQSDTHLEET
T2 sequence (Q9NZQ7 19-238 limits assumed): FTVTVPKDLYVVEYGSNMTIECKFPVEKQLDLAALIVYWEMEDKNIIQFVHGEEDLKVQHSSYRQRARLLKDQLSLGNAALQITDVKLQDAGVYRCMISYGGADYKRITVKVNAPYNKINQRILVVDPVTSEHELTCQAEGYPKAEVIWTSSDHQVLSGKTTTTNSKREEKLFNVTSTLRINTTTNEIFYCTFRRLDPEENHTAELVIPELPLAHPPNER

| Binder | EC50 (read off the curve) [1] [µg/mL] | EC50 (read off the curve) (PDL1 protein) [µg/mL] |
| --- | --- | --- |
| Cross303×PDL1 (bispecific antibody, human IgG1, kappa, L234A L235A) scFv: not shown heavy: QVQLVQSGAEVKKPGASVKVSCKASGYSFTGYYMHWVRQAPGQGLEWIGRINPYNGATTYSQNFKDRATMTVDTSISTAYMELSRLRSDDTAVYYCVPTGMGYFLMDYWGQGTLVTVSSASTKGPSVFPLAPSSKSTSGGTAALGCLVKDYFPEPVTVSWNSGALTSGVHTFPAVLQSSGLYSLSSVVTVPSSSLGTQTYICNVNHKPSNTKVDKKVEPKSCDKTHTCPPCPAPEAAGGPSVFLFPPKPKDTLMISRTPEVTCVVVDVSHEDPEVKFNWYVDGVEVHNAKTKPREEQYNSTYRVVSVLTVLHQDWLNGKEYKCKVSNKALPAPIEKTISKAKGQPREPQVCTLPPSREEMTKNQVSLSCAVKGFYPSDIAVEWESNGQPENNYKTTPPVLDSDGSFFLVSKLTVDKSRWQQGNVFSCSVMHEALHNHYTQKSLSLSPGK light: DIQLTQSPSFLSASVGDRVTITCKASQDVGSAVVWYQQKPGKAPKLLIYWASTRHTGVPSRFSGSGSGTEFTLTISSLQPEDFATYFCQQFTSYPTFGQGTKLEIKRTVAAPSVFIFPPSDEQLKSGTASVVCLLNNFYPREAKVQWKVDNALQSGNSQESVTEQDSKDSTYSLSSTLTLSKADYEKHKVYACEVTHQGLSSPVTKSFNRGEC | ~1 | ~0.2 |
| Cross308×PDL1 (bispecific antibody, human IgG1, kappa, L234A L235A) scFv: not shown heavy: QVQLVQSGAEVKKPGASVKVSCKASGYSFTGYYMHWVRQAPGQGLEWIGRINPYNGATTYSQNFKDRATMTVDTSISTAYMELSRLRSDDTAVYYCVPTGMGYFLMDYWGQGTLVTVSSASTKGPSVFPLAPSSKSTSGGTAALGCLVKDYFPEPVTVSWNSGALTSGVHTFPAVLQSSGLYSLSSVVTVPSSSLGTQTYICNVNHKPSNTKVDKKVEPKSCDKTHTCPPCPAPEAAGGPSVFLFPPKPKDTLMISRTPEVTCVVVDVSHEDPEVKFNWYVDGVEVHNAKTKPREEQYNSTYRVVSVLTVLHQDWLNGKEYKCKVSNKALPAPIEKTISKAKGQPREPQVCTLPPSREEMTKNQVSLSCAVKGFYPSDIAVEWESNGQPENNYKTTPPVLDSDGSFFLVSKLTVDKSRWQQGNVFSCSVMHEALHNHYTQKSLSLSPGK light: DIQLTQSPSFLSASVGDRVTITCKASQDVGSAVVWYQQKPGKAPKLLIYWASTRHTGVPSRFSGSGSGTEFTLTISSLQPEDFATYFCQQFTSYPTFGQGTKLEIKRTVAAPSVFIFPPSDEQLKSGTASVVCLLNNFYPREAKVQWKVDNALQSGNSQESVTEQDSKDSTYSLSSTLTLSKADYEKHKVYACEVTHQGLSSPVTKSFNRGEC | ~1 | ~0.2 |
| Cross312×PDL1 (bispecific antibody, human IgG1, kappa, L234A L235A) scFv: not shown heavy: QVQLVQSGAEVKKPGASVKVSCKASGYSFTGYYMHWVRQAPGQGLEWIGRINPYNGATTYSQNFKDRATMTVDTSISTAYMELSRLRSDDTAVYYCVPTGMGYFLMDYWGQGTLVTVSSASTKGPSVFPLAPSSKSTSGGTAALGCLVKDYFPEPVTVSWNSGALTSGVHTFPAVLQSSGLYSLSSVVTVPSSSLGTQTYICNVNHKPSNTKVDKKVEPKSCDKTHTCPPCPAPEAAGGPSVFLFPPKPKDTLMISRTPEVTCVVVDVSHEDPEVKFNWYVDGVEVHNAKTKPREEQYNSTYRVVSVLTVLHQDWLNGKEYKCKVSNKALPAPIEKTISKAKGQPREPQVCTLPPSREEMTKNQVSLSCAVKGFYPSDIAVEWESNGQPENNYKTTPPVLDSDGSFFLVSKLTVDKSRWQQGNVFSCSVMHEALHNHYTQKSLSLSPGK light: DIQLTQSPSFLSASVGDRVTITCKASQDVGSAVVWYQQKPGKAPKLLIYWASTRHTGVPSRFSGSGSGTEFTLTISSLQPEDFATYFCQQFTSYPTFGQGTKLEIKRTVAAPSVFIFPPSDEQLKSGTASVVCLLNNFYPREAKVQWKVDNALQSGNSQESVTEQDSKDSTYSLSSTLTLSKADYEKHKVYACEVTHQGLSSPVTKSFNRGEC | ~2 | ~0.2 |
| Cross307×PDL1 (bispecific antibody, human IgG1, kappa, L234A L235A) scFv: not shown heavy: QVQLVQSGAEVKKPGASVKVSCKASGYSFTGYYMHWVRQAPGQGLEWIGRINPYNGATTYSQNFKDRATMTVDTSISTAYMELSRLRSDDTAVYYCVPTGMGYFLMDYWGQGTLVTVSSASTKGPSVFPLAPSSKSTSGGTAALGCLVKDYFPEPVTVSWNSGALTSGVHTFPAVLQSSGLYSLSSVVTVPSSSLGTQTYICNVNHKPSNTKVDKKVEPKSCDKTHTCPPCPAPEAAGGPSVFLFPPKPKDTLMISRTPEVTCVVVDVSHEDPEVKFNWYVDGVEVHNAKTKPREEQYNSTYRVVSVLTVLHQDWLNGKEYKCKVSNKALPAPIEKTISKAKGQPREPQVCTLPPSREEMTKNQVSLSCAVKGFYPSDIAVEWESNGQPENNYKTTPPVLDSDGSFFLVSKLTVDKSRWQQGNVFSCSVMHEALHNHYTQKSLSLSPGK light: DIQLTQSPSFLSASVGDRVTITCKASQDVGSAVVWYQQKPGKAPKLLIYWASTRHTGVPSRFSGSGSGTEFTLTISSLQPEDFATYFCQQFTSYPTFGQGTKLEIKRTVAAPSVFIFPPSDEQLKSGTASVVCLLNNFYPREAKVQWKVDNALQSGNSQESVTEQDSKDSTYSLSSTLTLSKADYEKHKVYACEVTHQGLSSPVTKSFNRGEC | ~1 | ~0.2 |
| Cross311×PDL1 (bispecific antibody, human IgG1, kappa, L234A L235A) scFv: not shown heavy: QVQLVQSGAEVKKPGASVKVSCKASGYSFTGYYMHWVRQAPGQGLEWIGRINPYNGATTYSQNFKDRATMTVDTSISTAYMELSRLRSDDTAVYYCVPTGMGYFLMDYWGQGTLVTVSSASTKGPSVFPLAPSSKSTSGGTAALGCLVKDYFPEPVTVSWNSGALTSGVHTFPAVLQSSGLYSLSSVVTVPSSSLGTQTYICNVNHKPSNTKVDKKVEPKSCDKTHTCPPCPAPEAAGGPSVFLFPPKPKDTLMISRTPEVTCVVVDVSHEDPEVKFNWYVDGVEVHNAKTKPREEQYNSTYRVVSVLTVLHQDWLNGKEYKCKVSNKALPAPIEKTISKAKGQPREPQVCTLPPSREEMTKNQVSLSCAVKGFYPSDIAVEWESNGQPENNYKTTPPVLDSDGSFFLVSKLTVDKSRWQQGNVFSCSVMHEALHNHYTQKSLSLSPGK light: DIQLTQSPSFLSASVGDRVTITCKASQDVGSAVVWYQQKPGKAPKLLIYWASTRHTGVPSRFSGSGSGTEFTLTISSLQPEDFATYFCQQFTSYPTFGQGTKLEIKRTVAAPSVFIFPPSDEQLKSGTASVVCLLNNFYPREAKVQWKVDNALQSGNSQESVTEQDSKDSTYSLSSTLTLSKADYEKHKVYACEVTHQGLSSPVTKSFNRGEC | ~1 | ~0.2 |
| Cross314×PDL1 (bispecific antibody, human IgG1, kappa, L234A L235A) scFv: not shown heavy: QVQLVQSGAEVKKPGASVKVSCKASGYSFTGYYMHWVRQAPGQGLEWIGRINPYNGATTYSQNFKDRATMTVDTSISTAYMELSRLRSDDTAVYYCVPTGMGYFLMDYWGQGTLVTVSSASTKGPSVFPLAPSSKSTSGGTAALGCLVKDYFPEPVTVSWNSGALTSGVHTFPAVLQSSGLYSLSSVVTVPSSSLGTQTYICNVNHKPSNTKVDKKVEPKSCDKTHTCPPCPAPEAAGGPSVFLFPPKPKDTLMISRTPEVTCVVVDVSHEDPEVKFNWYVDGVEVHNAKTKPREEQYNSTYRVVSVLTVLHQDWLNGKEYKCKVSNKALPAPIEKTISKAKGQPREPQVCTLPPSREEMTKNQVSLSCAVKGFYPSDIAVEWESNGQPENNYKTTPPVLDSDGSFFLVSKLTVDKSRWQQGNVFSCSVMHEALHNHYTQKSLSLSPGK light: DIQLTQSPSFLSASVGDRVTITCKASQDVGSAVVWYQQKPGKAPKLLIYWASTRHTGVPSRFSGSGSGTEFTLTISSLQPEDFATYFCQQFTSYPTFGQGTKLEIKRTVAAPSVFIFPPSDEQLKSGTASVVCLLNNFYPREAKVQWKVDNALQSGNSQESVTEQDSKDSTYSLSSTLTLSKADYEKHKVYACEVTHQGLSSPVTKSFNRGEC | ~1 | ~0.2 |
